T1: Trypsin inhibitor type 1-S from Glycine max (Glycine max, UniProt P01070 25-205)
T1 construct: Amine coupled to a CM5 chip
T1 sequence (looked up): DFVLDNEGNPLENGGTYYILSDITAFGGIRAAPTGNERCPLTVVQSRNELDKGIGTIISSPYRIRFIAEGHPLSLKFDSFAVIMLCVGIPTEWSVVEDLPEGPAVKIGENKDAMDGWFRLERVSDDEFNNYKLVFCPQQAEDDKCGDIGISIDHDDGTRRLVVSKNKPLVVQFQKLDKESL


Experiments:
[1] = target: Human TSLP (form and source not stated) (human, UniProt Q969D9 29-159, limits assumed); test: cell-based or functional assay
[2] = target: T2, Lysozyme solution from chicken egg (chicken, UniProt P00698 19-147); test: SPR, protein coupled to CM5
T2 construct: Amine coupled to a CM5 chip
T2 sequence (P00698 19-147 limits assumed): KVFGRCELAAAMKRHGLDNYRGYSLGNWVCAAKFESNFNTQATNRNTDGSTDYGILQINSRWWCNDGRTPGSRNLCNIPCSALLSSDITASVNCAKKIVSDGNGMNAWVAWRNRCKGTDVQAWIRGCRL

[3] = target: T1, Trypsin inhibitor type 1-S from Glycine …; test: SPR, protein coupled to CM5
[4] = target: T3, human TSLP with His tag (ACRO, TSP-H52Ha) (human, UniProt Q969D9 29-159); test: SPR, His-TSLP captured on anti-His CM5, antibody analyte
T3 construct: Bought protein; also called human TSLP antigens; Human TSLP (Acro, #TSP-H52Ha); not shown: His tag

[5] = target: T4, monkey TSLP antigen (R127A, R130S) Protein, His Tag (ACRO, Cat#: TSP-C52H4) (monkey, UniProt A0A7N9CAT7 29-159); test: as above
T4 construct: Bought protein
T4 sequence (A0A7N9CAT7 entry or part of it R127A R130S R127A R130S limits assumed, form in doubt): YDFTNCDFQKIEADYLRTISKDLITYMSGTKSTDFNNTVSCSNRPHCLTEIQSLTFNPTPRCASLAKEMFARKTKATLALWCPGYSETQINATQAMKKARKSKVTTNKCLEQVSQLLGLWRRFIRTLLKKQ

TARC in PBMC supernatant (ELISA) [1] | binding response (RU) [2] [RU] | binding response (RU) [3] [RU] | Kd [4] [nM] | koff [4] [s⁻¹] | kon [4] [M⁻¹ s⁻¹] | Kd [5] [nM] | koff [5] [s⁻¹] | kon [5] [M⁻¹ s⁻¹] | Binder
~10 times better than Tezepelumab | 1.4 | 6.8 | 0.172 | 0.000126 | 733000 | 5.06 | 0.0165 | 3.27e+06 | 900792-huH2L2 (antibody, human IgG1, kappa, L234A L235A, V domains shown, Humanized) VH: QVQLVQSGAEVKKPGASVKVSCKASGYAFTNYLIEWVRQAPGQGLEWMGIINPESGDTYYAQKFQGRVTMTADKSTSTAYMELSSLRSEDSAVYFCAKESLTGSSYDYWGQGTTLTVSS VL: DIQMTQSPSSLSASVGDRVTITCRASENIYSNLVWYQQKPGKAPQLLVYGARNLQSGVPSRFSGSGSGTQFSLTISSLQPEDFATYYCQHFYETPLTFGTGTKLEIKR
~10 times better than Tezepelumab | 2.4 | 6.6 | 0.157 | 0.000121 | 771000 | 4.18 | 0.00989 | 2.37e+06 | 900792-huH4L3 (antibody, human IgG1, kappa, L234A L235A, V domains shown, Humanized) VH: QVQLVQSGAEVKKPGASVKVSCKASGYAFTNYLIEWVRQAPGQGLEWMGIINPESGDTYYAQKFQGRVTLTADKSTSTAYMELSSLRSEDSAVYYCAKESLTGSSYDYWGQGTTLTVSS VL: DIQMTQSPSSLSASVGDRVTITCRASENIYSNLVWYQQKPGKAPQLLIYGARNLQSGVPSRFSGSGSGTQFTLTISSLQPEDFATYYCQHFYETPLTFGTGTKLEIKR
~10 times better than Tezepelumab | 1 | 5.9 | 0.0964 | 7.02e-05 | 728000 | 7.99 | 0.00321 | 402000 | 900792-huH1L3 (antibody, human IgG1, kappa, L234A L235A, V domains shown, Humanized) VH: QVQLQQSGAEVKKPGASVKVSCKASGYAFTNYLIEWVRQAPGQGLEWIGVINPESGDTYYSEKFQGRVTLTADKSTSTAYMELSSLRSEDSAVYFCAKESLTGSSYDYWGQGTTLTVSS VL: DIQMTQSPSSLSASVGDRVTITCRASENIYSNLVWYQQKPGKAPQLLIYGARNLQSGVPSRFSGSGSGTQFTLTISSLQPEDFATYYCQHFYETPLTFGTGTKLEIKR
~10 times better than Tezepelumab | 1.5 | 8.1 | 0.131 | 0.000108 | 822000 | 5.05 | 0.0327 | 6.47e+06 | 900792-huH3L2 (antibody, human IgG1, kappa, L234A L235A, V domains shown, Humanized) VH: QVQLQQSGAEVKKPGASVKVSCKASGYAFTNYLIEWVRQAPGQGLEWMGVINPESGDTYYSQKFQGRVTMTADKSTSTAYMELSSLRSEDSAVYFCAKESLTGSSYDYWGQGTTLTVSS VL: DIQMTQSPSSLSASVGDRVTITCRASENIYSNLVWYQQKPGKAPQLLVYGARNLQSGVPSRFSGSGSGTQFSLTISSLQPEDFATYYCQHFYETPLTFGTGTKLEIKR
~10 times better than Tezepelumab | 0.8 | 6.9 | 0.141 | 0.00011 | 782000 | 3.82 | 0.0122 | 3.19e+06 | 900792-huH2L1 (antibody, human IgG1, kappa, L234A L235A, V domains shown, Humanized) VH: QVQLVQSGAEVKKPGASVKVSCKASGYAFTNYLIEWVRQAPGQGLEWMGIINPESGDTYYAQKFQGRVTMTADKSTSTAYMELSSLRSEDSAVYFCAKESLTGSSYDYWGQGTTLTVSS VL: DIQMTQSPSSLSASVGDRVTITCRASENIYSNLVWYQQKPGKAPQLLVYGARNLADGVPSRFSGSGSGTQFSLTISSLQPEDFATYYCQHFYETPLTFGTGTKLEIKR
~10 times better than Tezepelumab | 0.9 | 5.6 | 0.175 | 0.000129 | 737000 | 6.22 | 0.0362 | 5.82e+06 | 900792-huH3L1 (antibody, human IgG1, kappa, L234A L235A, V domains shown, Humanized) VH: QVQLQQSGAEVKKPGASVKVSCKASGYAFTNYLIEWVRQAPGQGLEWMGVINPESGDTYYSQKFQGRVTMTADKSTSTAYMELSSLRSEDSAVYFCAKESLTGSSYDYWGQGTTLTVSS VL: DIQMTQSPSSLSASVGDRVTITCRASENIYSNLVWYQQKPGKAPQLLVYGARNLADGVPSRFSGSGSGTQFSLTISSLQPEDFATYYCQHFYETPLTFGTGTKLEIKR
~10 times better than Tezepelumab | 3.3 | 8.6 | 0.234 | 0.000174 | 743000 | 3.99 | 0.013 | 3.27e+06 | 900792-huH4L2 (antibody, human IgG1, kappa, L234A L235A, V domains shown, Humanized) VH: QVQLVQSGAEVKKPGASVKVSCKASGYAFTNYLIEWVRQAPGQGLEWMGIINPESGDTYYAQKFQGRVTLTADKSTSTAYMELSSLRSEDSAVYYCAKESLTGSSYDYWGQGTTLTVSS VL: DIQMTQSPSSLSASVGDRVTITCRASENIYSNLVWYQQKPGKAPQLLVYGARNLQSGVPSRFSGSGSGTQFSLTISSLQPEDFATYYCQHFYETPLTFGTGTKLEIKR
~10 times better than Tezepelumab | 2 | 6 | 0.176 | 0.000126 | 713000 | 8.23 | 0.00274 | 333000 | 900792-huH1L2 (antibody, human IgG1, kappa, L234A L235A, V domains shown, Humanized) VH: QVQLQQSGAEVKKPGASVKVSCKASGYAFTNYLIEWVRQAPGQGLEWIGVINPESGDTYYSEKFQGRVTLTADKSTSTAYMELSSLRSEDSAVYFCAKESLTGSSYDYWGQGTTLTVSS VL: DIQMTQSPSSLSASVGDRVTITCRASENIYSNLVWYQQKPGKAPQLLVYGARNLQSGVPSRFSGSGSGTQFSLTISSLQPEDFATYYCQHFYETPLTFGTGTKLEIKR
~10 times better than Tezepelumab | 4 | 9.6 | 0.117 | 8.15e-05 | 694000 | 4.17 | 0.00873 | 2.09e+06 | 900792-huH4L1 (antibody, human IgG1, kappa, L234A L235A, V domains shown, Humanized) VH: QVQLVQSGAEVKKPGASVKVSCKASGYAFTNYLIEWVRQAPGQGLEWMGIINPESGDTYYAQKFQGRVTLTADKSTSTAYMELSSLRSEDSAVYYCAKESLTGSSYDYWGQGTTLTVSS VL: DIQMTQSPSSLSASVGDRVTITCRASENIYSNLVWYQQKPGKAPQLLVYGARNLADGVPSRFSGSGSGTQFSLTISSLQPEDFATYYCQHFYETPLTFGTGTKLEIKR
~10 times better than Tezepelumab | 1.8 | 5.7 | 0.126 | 9.45e-05 | 748000 | 8.16 | 0.00339 | 416000 | 900792-huH1L1 (antibody, human IgG1, kappa, L234A L235A, V domains shown, Humanized) VH: QVQLQQSGAEVKKPGASVKVSCKASGYAFTNYLIEWVRQAPGQGLEWIGVINPESGDTYYSEKFQGRVTLTADKSTSTAYMELSSLRSEDSAVYFCAKESLTGSSYDYWGQGTTLTVSS VL: DIQMTQSPSSLSASVGDRVTITCRASENIYSNLVWYQQKPGKAPQLLVYGARNLADGVPSRFSGSGSGTQFSLTISSLQPEDFATYYCQHFYETPLTFGTGTKLEIKR
~10 times better than Tezepelumab | 1.9 | 8.7 | 0.189 | 0.000143 | 755000 | 6.01 | 0.087 | 1.45e+07 | 900792-huH3L3 (antibody, human IgG1, kappa, L234A L235A, V domains shown, Humanized) VH: QVQLQQSGAEVKKPGASVKVSCKASGYAFTNYLIEWVRQAPGQGLEWMGVINPESGDTYYSQKFQGRVTMTADKSTSTAYMELSSLRSEDSAVYFCAKESLTGSSYDYWGQGTTLTVSS VL: DIQMTQSPSSLSASVGDRVTITCRASENIYSNLVWYQQKPGKAPQLLIYGARNLQSGVPSRFSGSGSGTQFTLTISSLQPEDFATYYCQHFYETPLTFGTGTKLEIKR
~10 times better than Tezepelumab | 5.9 | 6.8 | 0.172 | 0.000126 | 733000 | 5.88 | 0.0189 | 3.22e+06 | 900792-huH2L3 (antibody, human IgG1, kappa, L234A L235A, V domains shown, Humanized) VH: QVQLVQSGAEVKKPGASVKVSCKASGYAFTNYLIEWVRQAPGQGLEWMGIINPESGDTYYAQKFQGRVTMTADKSTSTAYMELSSLRSEDSAVYFCAKESLTGSSYDYWGQGTTLTVSS VL: DIQMTQSPSSLSASVGDRVTITCRASENIYSNLVWYQQKPGKAPQLLIYGARNLQSGVPSRFSGSGSGTQFTLTISSLQPEDFATYYCQHFYETPLTFGTGTKLEIKR
 | 2.1 | 7.2 | 0.223 | 0.000157 | 703000 | 4.58 | 0.0159 | 3.47e+06 | 900792 chimera (antibody, human IgG1, kappa, L234A L235A, V domains shown, Human-mouse chimera of clone 77E6; human IgG1 constant region with L234A and L235A (Eu), human kappa) VH: QVQLQQSGAELVRPGTSVKVSCKASGYAFTNYLIEWVKQRPGQGLEWIGVINPESGDTYYSEKFKGKATLTADKSSSTAYMQLSSLTSEDSAVYFCAKESLTGSSYDYWGQGTTLTVSS VL: DIQMTQSPASLSASVGESVTITCRASENIYSNLVWYQQKQGKSPQLLVYGARNLADGVPSRFSGSGSGTQFSLKINSLQPEDFGNYYCQHFYETPLTFGTGTKLEIKR

Reference: EP4814011A1 (Shanghai Huaota Biopharmaceutical Co., Ltd., dated 2026)
